{"source": "the DeepSol protein solubility set"}
{"experiment": "soluble on expression in E. coli; label from the status in PepcDB or PDB records"}
{"sequence": "MNRKKLAAYGQEFEDDDEEGSSVSKKPTQIHEEIATDEKGKRRFHGAFTGGFSAGYWNTVGSKQGWVPQVFSSSRNERGEQIKQRAEDFMDAEDLGEYGIGNRSIKQTAAFGEGAGQKRKMAWERDTTSISTITQMFEDVVKPVSNSIGVRMLRSMGWREGRGIGLANVKQKQKRGGESSEAQFDREQASKVAPAYEFSNEDALVKQLTPLTGTHGIGYQGLRKTTVLNESYGRTTLALKSGKKNSKGIKGQAFGVGAFEEEDESVYSNYDLSQFDFSLDVAGASEESNLKTQKLVTAFELQPKRLNPRKFYAPPRVPPNFRGDHRPIPMDISKLPQMMKNDVKHMNAEQRAKFLGEDRVNALEIGGKSSKKPTERRSRWDIKANEVEKRDNERGGGEAEEDRDRRQRNRIEFPDEPMRQARFKEFLHYIRRGLPYPQPTDLTVWEWEWEKKEFESKLTSDERGMLPEVQSRAQPLAKTAIAAPIHEMMASKFVKEAGGDLKVGTKDEDKLAAVKMEMFGEKTRQSFDWYPDNLLAKRFNVPHPYPGSDTVGVPALQKTDWKRKDRLADIGGVSATLGLPNTANEIEMRERLLKSRAQRGAEEKKRNQSDDDDEKEYDDKDSDEEEENEAEPNNQKVDKAPKSFFDFIFGDGDGADSDESNSEDEEAEEKERQEILKKREEDLKRRREIVEKKEEENRKRVEKELKELENRDLLRVSKQQEDDDIQIIDETSASSFGPALPPSSKPVLSKTEVLKLLEKNMKKKKKDKKEKEKKKKSKKSKKSKKEKKTKRKHSSSSADDSGDNSDGWEEKK", "soluble on expression in E. coli": "not soluble"}
{"sequence": "MGSDKIHHHHHHMRIAPLPPLQCLVAFESAVRHASFTKAAAELHLTQSAISRQIAQLEDFLGRSLFVREHRALRLTIAGEGYAKHVQWLLASCSEATLDVMKRYGDMELTIACSSGVAVLWLTPRLGAFRAAHPNVRIRMIVRDGLASLSPAEFDVGLYYIRQRAEPHFTARRLFDEDVYPVCSPGYLAGRVLTPAGLVHETLLVQEDGQRQWMSWSEWFRLNHVQMPASPQAVVVNHYPQLVQMAILGQGVVLGWRHMIDACLSEGLLVRATQASASHGGGYYVVSPNDRSQNQAARLFTRWVFEQAEAQMGRAAS", "soluble on expression in E. coli": "not soluble"}
{"sequence": "MRLGVNVDHVATVRQARRTFEPSPVFAALIAQQAGADQITLHLREDRRHIQDRDLELIKELITIPVNLEMAPTEEMREIALRVKPDRITLVPERREEITTEGGLDVVSLKEKLKEYLKPIKEAGIEVSLFIEAQKEQIDASVEVGADAIEIHTGRYANLWNEHRFEEAKEELNRIKEAAIYAKEKGLKVYAGHGLTYHNVKDFVRELKGYVEELNIGHSIVANAVIFGFERAVKEMLNLIKT", "soluble on expression in E. coli": "soluble"}
{"sequence": "MAHHHHHHMLHRIPAYRDPLLQVLSDALKRALDFYRREMSAGMSVEFECRLGTFSASKHTYAHPFPTHTLTPALLDGQSTTPFFFFAGVAQPSFIAAHETLKTIGASMPPRSSTVLSVRTVGKDRLEYAMNEACNSGHLLTIVEKERIFSHDVRCPGWGADFRVSVSREKTIDRETWNQAKWESFTPNISRLRQRKSVRIDPFLSVDMAMVRSFTDHSRFVRPWSPELQVPFISAPHVSFDVELEVNMPALHRVVKQTRLVESTLGRTALDLLTVLQFLAAKRE", "soluble on expression in E. coli": "not soluble"}
{"sequence": "NDDIIVNWVNRTLSEAGKSTSIQSFKDKTISSSLAVVDLIDAIQPGCINYDLVKSGNLTEDDKHNNAKYAVSMARRIGARVYALPEDLVEVKPKMVMTVFACLMGRGMKRV", "soluble on expression in E. coli": "soluble"}
{"sequence": "MGHHHHHHSHMFGYVVVNEQNSIVFLDGNEEFKTIFQSLIQSEITSRKSDLDSASSGVGSSTCTEEQESSLDHFKKPNVVFNSSEISHILLPLILLYRSTSEKTKDPITEMSSQFGTISISKFYHNYLVLVFANDDRKRIEVSQTIEHTIATLFGPLIAFCHTDLTTVKKPKEHLACALTRKLSYSPKC", "soluble on expression in E. coli": "not soluble"}
{"sequence": "MKYYHHHHHHDYDIPTTENLYFQGAMAFDGEDEVTGPDADRARAAAVQAVPGGTAGEVETETGEGAAAYGVLVTRPDGTRVEVHLDRDFRVLDTEPADGDGG", "soluble on expression in E. coli": "soluble"}
{"sequence": "MGSDKIHHHHHHMTSELETAANPEKLKRIVIEPVTRVEGHGKVTLLLDEDNRVQQARFHIVEFRGFEKFIQGRPYTEVPVLVQRLCGICPVSHNLAASKAMDVIVGAAPPPAADKLRRLMHMGQMLQSHALHFFHLSSPDLLFGFDAEVGKRNIAGLAMQFPDIARQGVGLRKFGQEVIRMTSGKRVHGTGVIPGGMSKNLSREDRDWLLAEIDQVVRWSQQAVNLIKRLYGEHKDFYNNFGYYRSSFMSLVREDGAMDLYHGNLRAIDDKGQTIFDHVDYSHYGDYIHEEVKSWSYMKFPFIRSQGREEGWYRVGPLARVNNCDFIPTPLAEAERKIFKEYDGGRASHATLSFHWARMIEMLHSAEAIRELLHDDDLLSDDLVNIGERQLRGVGVIEAPRGTLIHHYRINEDEQIVRANLIVATTHNNQAMNEAIRQVSLQYLDGQQLTEGLLNYIEVAIRAFDPCLSCATHALGKMPLEVELVDAEGARVKRIIKDSDGGYRA", "soluble on expression in E. coli": "not soluble"}
{"sequence": "MVVYGKQKYIMKRCFYMNKKLKTEAVDHLFQAILTLKSTEECYSFFEDVCTVNELLSFSQRYEVAKMLREKRTYLEIADKTGASTATISRVNRSLNYGNDGYDMVFKRLEDQAAEDNEA", "soluble on expression in E. coli": "not soluble"}
{"sequence": "MGSSHHHHHHSSGLVPRGSHMLEDPGEGQDIWDMLDKGNPFQFYLTRVSGVKPKYNSGALHIKDILSPLFGTLVSSAQFNYCFDVDWLVKQYPPEFRKKPILLVHGDKREAKAHLHAQAKPYENISLCQAKLDIAFGTHHTKMMLLLYEEGLRVVIHTSNLIHADWHQKTQGIWLSPLYPRIADGTHKSGESPTHFKANLISYLTAYNAPSLKEWIDVIHKHDLSETNVYLIGSTPGRFQGSQKDNWGHFRLKKLLKDHASSMPNAESWPVVGQFSSVGSLGADESKWLCSEFKESMLTLGKESKTPGKSSVPLYLIYPSVENVRTSLEGYPAGGSLPYSIQTAEKQNWLHSYFHKWSAETSGRSNAMPHIKTYMRPSPDFSKIAWFLVTSANLSKAAWGALEKNGTQLMIRSYELGVLFLPSALGLDSFKVKQKFFAGSQEPMATFPVPYDLPPELYGSKDRPWIWNIPYVKAPDTHGNMWVPS", "soluble on expression in E. coli": "soluble"}
{"sequence": "MSLSNSLLPPNASGLERDIEQVIVQSTDLPIRIKDLWNPYSCHLSLLPWLAWALSVDEWDDRWPEHIKRQVVQDSFDVHRFKGTPYAVQKALDSLNIKTHLREWWEPDGSQEPGTMTVVALINENLTDDDNGLITEAMLEQVTRVIHTAKRGVIHFDVELGISLDETLGFSGAIGPSIAEIDFSSDFLPIVPEKGSADMAFSAALYGIGSADFLADMSGVVPDESSSHVFVCGGLAGISASWLEFEGDLEGHHHHHH", "soluble on expression in E. coli": "soluble"}
{"sequence": "MSIRDERKQQSRQALLDAALQLSTGGRSFSSISLREVAREVGLVPTAFYRHFQDMDALGQELVDQVALHIKSLIHQLGQSYLQQVSTHPDSSIELFFQAINHSPLEWQFMIAERWGGSAAVRQAIAREIEDLIEDLATDLRKLPMFEHIQDSQDLKVLSTILINLSFTWAMTWLSLASQYQDAALSQHQQQFVENANTQIRLMFRGVANWG", "soluble on expression in E. coli": "not soluble"}
{"sequence": "MSAEVETSEGVDESEKKNSGALEKENQMRMADLSELLKEGTKEAHDRAENTQFVKDFLKGNIKKELFKLATTALYFTYSALEEEMERNKDHPAFAPLYFPMELHRKEALTKDMEYFFGENWEEQVQCPKAAQKYVERIHYIGQNEPELLVAHAYTRYMGDLSGGQVLKKVAQRALKLPSTGEGTQFYLFENVDNAQQFKQLYRARMNALDLNMKTKERIVEEANKAFEYNMQIFNELDQAGSTLARETLEDGFPVHDGKGDMRKCPFYAAEQDKGALEGSSCPFRTAM", "soluble on expression in E. coli": "soluble"}
{"sequence": "MVVSIIPQFPDIKVSLALFEQVKNAKEIRSKMSELSTSFAFIDPRLVCSGEQMYSAIYKTLIEVKYNKMRTRNLNSECVLCLSPTSNISDAFLKFGIKDDSSQLICLKFHTNTDDVDKEQLRTIMTSIVKGQEIEFNDDNLSRFYDEALIRKVCFNNKFEVKTSTASPETHCTNFTFVFLLFCFYLLDL", "soluble on expression in E. coli": "not soluble"}
{"sequence": "MLDDLPGVADNAKKILFDMKCTTVIDDCNVHLRDVLNLLEDEMHSFRLSSIEANDLDKLYDTFYYYGKKEQLIEFLLDQMTNAINFKQADKDFLIYSWLVEKLTEEQICEMLARINENTQYHWNNNLNSFVDEFVAYYKETNGIDLRINYLGAIYTNLKILSDEYTLSISDYELIFKFFEDIIESHSETIFDFQRKYKKDIETNFGNSLENFPKLNKLLFE", "soluble on expression in E. coli": "not soluble"}
{"sequence": "MSLRISMATFFPQSVTALDSPLYGRSFADDKMRELFSAQSFISRCVETEVALARAQARLGIIPEDAAAGITAAARTFAPEMERLRDDTEIVGYPILPLVEQLSAHAGEAGKYLHWGATTQDIMDTATVLQIRDGLALISRRIESVRKALAALARNHRDTPMAGRTHLQHALPVTFGYKAAVWLSAFDRHAARLEEISPRVLVVEFSGASGTLASLGTRGLDVQRELARELNLGVPSITWHSARDAVAETVQFLALVSGSLGKLAMDISIMMTTELGEVAEPFVRHRGASSTMPQKQNPVSCELILAGARIVRNHATSMLDAMIHDFERATGPWHLEWSAVPEGFAVASGILYQAEFMLGGLQVFPDRMRENLDHSRGLIVAEAVMMALAPHTGRKEAHDIVYLGCRRAVEDKTGLFEVLRTMPEVAKPLGEEALRDLTDPRNYLGSAGAMVDNVLGGREGHHHHHH", "soluble on expression in E. coli": "soluble"}
{"sequence": "TQDMELNVNVNVTFQQNKLLSLSGMYGGENISAPEYKSLASLDGAGFHGGYNHIVYQMVGQPLGVFYLPHCKGLIADGNGGYTYDIADLNGGGVSLEDGEDRYVAGQAVPKTLLGSNISFRYKRFDLSVQVNGAFGHKIYNGTSLTYMNMNIFPDYNVMKKAPGRNIKDQTATDYWLEKGDYINFDYVTVGWNVPVAKWKKYVQSFRLAFTVNNLATITGYSGLSPMINSSTVNSTLGVDDKRAYPLARTYTLGLSINF", "soluble on expression in E. coli": "not soluble"}
{"sequence": "AIACGDCVEKEYPNRGNTCLENGSFLLNFTGCAVCSKRDFMLITNKSLKEEDGEEIVTYDHLCKNCHHVIARHEYTFSIMDEFQEYTMLCLLCGKAEDTISILPDDPRQMTLLF", "soluble on expression in E. coli": "soluble"}
{"sequence": "MGSDKIHHHHHHMRYNCLYLIFKESRFVKIAIVANTSWNIYNFRLNLIHFFLAHKYEVVCIAPVDRHTEALTTLPVTFVPVEIDSKGNNPIKDARLVGKFLSIYKKHKPDVILQYTIKPNIYGTLAAKLCGIPTINTVTGLGTVFLHDTCITRLAQQLYAFSFKFATVAVFQNEDDRDIFVQKRIITHAKTQIIKGSGVNTTHFIPAKTYSKAFAFLMVARLLYDKGIREYAQAAKCLHEQHGNNVQCLLIGAIDSDKQLGINKEDVHAWANRHHLIYKPFDTAILKEYQQANVVVLPSYREGLSKSLLEAGACGKPLIASNVSGCKEIVIDNWNGYLCEAKDAGNLFDKMNLMLETSPEQLAEMGKNSRDFIEQNFSDKIISNDYFYLIKRVTESKKTNTNDIH", "soluble on expression in E. coli": "not soluble"}
{"sequence": "MGHHHHHHSHMHTPEVASPSPGDRCREKSSPRPQTRFPSWHRVGDGWRVSIGTARSGCCQVGPCQGSSPLSTLCLAVPAPRYSNMACTQQSGGTTMVTADAPRLCLVNVAEQNGRLDPEEGPLSWHLSLAT", "soluble on expression in E. coli": "not soluble"}
{"sequence": "VAVGDVDAPVGLVVFSDYQCPFCAKWSDETLPQMMKHVEDGNLRIEWREVNIFGEPSERGARAAYAAGLQDAYLEYHNALFANGEKPSEDLLSEEGLIKLAGDLGLDESKFTADFQSPETAVAIAQHQQLGIDLGAYSTPAFLLGGQPIMGAQPASVFEAAFEQALAAKE", "soluble on expression in E. coli": "not soluble"}
{"sequence": "MIDTFERTGPLMEASSYPAWAQQLINDCSPAKARVVEHELYQQMRDAKLSPQIMRQYLIGGWPVVEQFAVYMAKNLTKTRFGRHPGEDMARRWLMRNIRVELNHADYWVNWCAAHDVTLEDLHDQRVAPELHALSHWCWQTSSSDSLAVAMAATNYAIEGATGEWSAVVCSTGVYAEAFAEETRKKSMKWLKMHAQYDDAHPWEALEIICTLVGNKPSLQLQAELRQAVTKSYDYMYLFLERCIQLDKVKSPRGRVAALEM", "soluble on expression in E. coli": "soluble"}
